The source of these data is paper PMC314469, “Protein Interaction Networks by Proteome Peptide Scanning” (PLoS Biology, 2004).

T1: Abp1 SH3 (ABP1_YEAST), P15891
T1 chain: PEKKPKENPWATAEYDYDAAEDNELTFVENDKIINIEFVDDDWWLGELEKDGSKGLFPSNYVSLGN

B1: YKR086W 737-749 (peptide)
chain: TDELSKFPFIDKP
B2: YHR099W 870-882 (peptide)
chain: SVLAPYLPFLMKP
B3: YOR118W 248-260 (peptide)
chain: TAIRTVMPNLLKP
B4: YMR167W 278-290 (peptide)
chain: SVYSNYLPKGNRP
B5: YGL027C 137-150 (peptide)
chain: SVRVQGEPLDPKRP
B6: YPL088W 324-337 (peptide)
chain: TEEEIKYLEEPYKP
B7: YPR022C 958-970 (peptide)
chain: SYNINSDPVITRP
B8: YNL251C 479-491 (peptide)
chain: TDSGRNGPRSGKP
B9: YCR033W 957-970 (peptide)
chain: SVQQSQILIQPERP
B10: YKL085W 88-101 (peptide)
chain: TDMVLIPAGVPRKP
B11: YPL226W 815-827 (peptide)
chain: TDVTFSYPGAQKP
B12: YDL227C 82-95 (peptide)
chain: TAGHKLSVRVPTKP
B13: YOR160W 317-329 (peptide)
chain: SVVISKNPDFFKP
B14: YBR058C 192-205 (peptide)
chain: TSPHTENFQIPSKP
B15: YMR185W 853-865 (peptide)
chain: TSLSIVRPNDSKP
B16: YPL110C 407-419 (peptide)
chain: SYILEELPIHLRP
B17: YBR122C 34-47 (peptide)
chain: SYPGSTRITLPRRP
B18: YML061C 94-106 (peptide)
chain: TDIHKEDPVDKKP
B19: YPR171W 199-212 (peptide)
chain: TDGNEEKPLLPTRP
B20: YFR022W 627-640 (peptide)
chain: SYPSAIQNVQPRKP
B21: YBR208C 1266-1278 (peptide)
chain: TSGPHGSPDFFKP
B22: YPL160W 891-903 (peptide)
chain: SVQNAKFPRASKP

In the assay the target is T1, Abp1 SH3 (ABP1_YEAST), P15891. The assay can be described thus: SPOT array.
The molecule B1 yielded a normalised SPOT signal, Boehringer light units (BLU); mean over the file's lines of this peptide of 42.7.
The same measure for B2: 8.6; for B3: 109.
The same measure for B4: 216; for B5: 80; for B6: 102.
In the case of B7, the normalised SPOT signal, Boehringer light units (BLU); mean over the file's lines of this peptide worked out at 90.3.
B8 had a normalised SPOT signal, Boehringer light units (BLU); mean over the file's lines of this peptide of 36.5.
The same measure for B9: 73; for B10: 122.
The same measure for B11: 108.
The same measure for B12: 638; for B13: 62.4.
B14: the normalised SPOT signal, Boehringer light units (BLU); mean over the file's lines of this peptide was 66.6.
The same measure for B15: 54.1; for B16: 140.
B17 had a normalised SPOT signal, Boehringer light units (BLU); mean over the file's lines of this peptide of 568.
The same measure for B18: 200; for B19: 65.4.
The same measure for B20: 105; for B21: 64.2.
The same measure for B22: 240.
